Experimental data: patent US20230220084A1 (DRAGONFLY THERAPEUTICS, published 2023)
Where a chain is given by its changes, count along the chain named. One block for each binder: values may come before it.

Legend:
[1] = molecular target: T1, hCLEC12A-His fusion protein (human, UniProt Q5QGZ9 65-265, limits assumed); assay: yeast display flow cytometry with hCLEC12A-his (PE-A against FITC-A)
T1 construct: Recombinant His-tagged human CLEC12A; also called Human CLEC12A-His; recombinant human CLEC12A
T1 sequence (looked up): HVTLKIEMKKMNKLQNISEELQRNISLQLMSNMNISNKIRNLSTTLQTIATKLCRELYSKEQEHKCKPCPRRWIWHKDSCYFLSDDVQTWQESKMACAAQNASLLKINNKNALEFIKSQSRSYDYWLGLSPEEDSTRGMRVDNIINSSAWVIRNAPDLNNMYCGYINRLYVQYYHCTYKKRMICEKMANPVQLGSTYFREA

[2] = molecular target: T1, hCLEC12A-His fusion protein; assay: SPR 37 C, two-state fit, ka1; ka1 of two-state fit, 37 C
[3] = molecular target: T1, hCLEC12A-His fusion protein; assay: SPR 37 C, two-state fit, kd1; kd1 of two-state fit, 37 C
[4] = molecular target: T1, hCLEC12A-His fusion protein; assay: SPR 37 C, two-state fit; overall KD of two-state fit, 37 C
[5] = molecular target: T1, hCLEC12A-His fusion protein; assay: SPR 37 C, two-state fit, kd2

- binding result [1]: binds
B1: parent scFv (YDYDDSLDY) (SEQ ID NO:5) of F3′-1602, yeast display (scFv)
scFv: QLQLQESGPGLVKPSETLSLTCTVSGFSLTNYGLHWIRQPPGKCLEWIGVIWSGGKTDYNPSLKSRVTISKDTSKNQFSLKLSSVQAADTAVYYCAKYDYDDSLDYWGQGTLVTVSSGGGGSGGGGSGGGGSGGGGSDIQMTQSPSSLSASVGDRVTITCHASQNINFWLSWYQQKPGKAPKLLIYEASNLHTGVPSRFSGSGSGTRFTLTISSLQPEDIATYYCQQSHSYPLTFGCGTKLEIK

- kon [2]: 1.63e+06 M⁻¹ s⁻¹
- koff [3]: 0.0157 s⁻¹
- Kd [4]: 2.41 nM
- koff [5]: 0.000949 s⁻¹
B2: AB0053 (bispecific antibody)
chain: B1 scFv with S103A
